Data from patent publication US20170112894A1 (CANBAS, published 2017).
Square brackets hold non-standard residues; d marks the D form. Ends that are not written are not given here. dPhe(4-NO2) = N[C@H](Cc1ccc([N+](=O)[O-])cc1)C(=O)O; dPhe(F5) = N[C@H](Cc1c(F)c(F)c(F)c(F)c1F)C(=O)O; dBpa = N[C@H](Cc1ccc(C(=O)c2ccccc2)cc1)C(=O)O; dCha = N[C@H](CC1CCCCC1)C(=O)O

T1: baculovirus derived recombinant human full length Chk1 with histidine tag (human, UniProt O14757 1-476)
T1 sequence: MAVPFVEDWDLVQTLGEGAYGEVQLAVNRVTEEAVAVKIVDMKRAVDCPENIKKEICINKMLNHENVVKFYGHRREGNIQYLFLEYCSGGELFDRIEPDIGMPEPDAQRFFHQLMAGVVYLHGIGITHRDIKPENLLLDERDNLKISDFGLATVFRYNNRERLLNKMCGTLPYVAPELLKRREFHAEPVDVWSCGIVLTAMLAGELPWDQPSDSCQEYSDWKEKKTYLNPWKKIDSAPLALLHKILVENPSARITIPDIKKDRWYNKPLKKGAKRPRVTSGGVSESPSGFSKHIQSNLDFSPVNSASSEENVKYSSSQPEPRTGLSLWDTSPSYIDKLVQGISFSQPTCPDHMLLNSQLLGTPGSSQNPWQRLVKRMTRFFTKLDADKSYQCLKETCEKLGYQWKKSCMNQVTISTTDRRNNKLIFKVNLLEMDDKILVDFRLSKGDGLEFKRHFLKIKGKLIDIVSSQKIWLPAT


Columns and labels:
Test in all cases: cell-based or functional assay
[1] = molecular target: T1, baculovirus derived recombinant human …
[2] = molecular target: E. Coli derived recombinant human full length Chk2 fused with GST (human, UniProt O96017 1-543)
PKA = molecular target: PKA
purified CHK2 kinase = molecular target: purified CHK2 kinase

E. Coli derived recombinant human full length Chk2 fused with GST, sequence (O96017 whole entry, the tested form may be a part): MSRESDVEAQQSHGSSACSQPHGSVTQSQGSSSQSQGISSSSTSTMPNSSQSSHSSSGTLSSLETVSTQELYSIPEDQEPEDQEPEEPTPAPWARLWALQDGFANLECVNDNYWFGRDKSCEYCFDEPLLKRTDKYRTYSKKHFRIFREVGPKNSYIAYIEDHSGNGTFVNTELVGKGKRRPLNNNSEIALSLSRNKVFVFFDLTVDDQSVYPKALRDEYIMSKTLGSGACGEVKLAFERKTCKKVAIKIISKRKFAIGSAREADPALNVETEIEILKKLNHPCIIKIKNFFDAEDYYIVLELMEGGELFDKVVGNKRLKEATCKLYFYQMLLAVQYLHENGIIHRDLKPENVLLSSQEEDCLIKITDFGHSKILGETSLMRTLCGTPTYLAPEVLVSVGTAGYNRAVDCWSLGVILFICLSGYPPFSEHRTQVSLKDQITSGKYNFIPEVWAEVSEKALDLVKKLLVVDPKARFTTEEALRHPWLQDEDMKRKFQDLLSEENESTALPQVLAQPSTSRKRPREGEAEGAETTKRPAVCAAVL

Row | Binder | Kinase inhibition (phosphorylation of serine 216 on GST-Cdc25C 167-267, enzyme linked immune assay) [1] | Kinase inhibition (phosphorylation of serine 216 on GST-Cdc25C 167-267, enzyme linked immune assay) [2] | IC50, kinase inhibition (PepTag Non-Radioactive Protein Kinase Assay) (PKA) | IC50, kinase inhibition (PepTag Non-Radioactive Protein Kinase Assay) (purified CHK2 kinase)
1 | [dBpa][dS][dW][dS][dPhe(4-NO2)][dCha][dR][dR][dR][dQ][dR][dR] [CBP603] | 15.5 | 18.1 |  | 
2 | [dY][dBpa][dS][dW][dS][dPhe(F5)][dCha][dR][dR][dR][dQ][dR][dR] [CBP500] | 5.6 | 8 |  | 
3 | [dY][dY][dS]G[dS][dR][dPhe(F5)][dCha][dR][dR][dR][dQ][dR][dR][dK][dK][dR]G[dY] [CBP450] |  |  | > 400 µM | 10 µM
4 | YGRKKRRQRRRXFXYY ((l-Tyr)(l-Gly)(l-Arg)(l-Lys)(l-Lys)(l-Arg)(l-Arg)(l-Gln)(l-Arg)(l-Arg)(l-Arg)(l-Cha)(l-Phe-2,3,4,5,6-F)(l-aminoundecanoic acid)(l-Tyr)(l-Tyr): Cha = cyclohexyl-alanine; Phe-2,3,4,5,6-F = pentafluoro-phenylalanine; aminoundecanoic acid spacer) [CBP440] |  |  | 180 µM | 8 µM
5 | [dBpa][dS][dW][dS][dPhe(F5)][dCha][dR][dR][dR][dQ][dR][dR] [CBP501] | 7.9 | 18.6 |  | 
6 | [dBpa][dD][dS][dW][dS][dPhe(F5)][dCha][dR][dR][dR][dQ][dR][dR] [CBP505] | 63.4 | > 100 |  | 
